Molecular target: human 40S ribosomal subunit labelled with Cy3 on the N-terminus of uS19 (human) (UniProt P62841)
Assay: FRET or BRET

Work on “Bat-Hp-CoV Nsp1, fluorescently labelled (wild type) (natural protein)” yielded a fold inhibition of eIF1A association with the 40S subunit of over 2 fold, a koff of under 0.01 s⁻¹ and a persistence of the FRET signal of over 100 s.
